Assay results taken from patent publication US20180057601A1 (PIERRE FABRE MEDICAMENT, published 2018).

What was measured:
[1] = target: ADAM17 at the plasma membrane of A431 cells (human, UniProt P78536 215-824); assay: cell-based or functional assay
Peptide_001 = target: T1, Peptide_001; assay: peptide microarray: immobilized 15-mer peptides, Cy5 anti-human IgG; signal as ratio to control antibody ch9G4
T1 construct: immobilized on the microarray
T1 peptide: DTVCLDLGKCKDGKC
Experimental: (§1) Peptide micro array epitope characterization was performed by JPT Peptide Technologies GmbH, Berlin, Germany. In brief the analysis was performed as follows: 32-linear 15-meric peptide sequences representing an overlapping peptide scan (15/12) through the ADAM17 membrane proximal domain were synthesized (Table 5) and immobilized on microarray slides four additional peptides were included by JPT as internal process control spots. Moreover, human IgG and mouse IgG were co-immobilized on the microarray to serve as assay controls. Furthermore, rhADAM17 protein was co-immobilized as an additional control.
(§2) The assay was performed using a Multiwell incubation chamber. Microarrays were incubated with 100 μg/ml 1022C3 or control antibody ch9G4 diluted in blocking buffer (Pierce International, Superblock TBS T20, order No 37536) overnight at 4° C. Microarrays were then incubated with 1 μg/ml Cy5 labelled secondary antibody (anti-human IgG, JIR, 109-175-098) diluted in blocking buffer for 60 min at 30° C. Microarrays were dried. Before each step microarrays were washed with washing buffer (50 mM TBS-buffer, 0.1% Tween20 (v/v), pH 7.2).
(§3) Microarrays were scanned using a high resolution fluorescence scanner. Laser settings and applied resolution were identical for all performed measurements. The resulting images were analyzed and quantified using spot-recognition software GenePix (Molecular Devices). For each spot, the mean signal intensity was extracted (between 0 and 65535 arbitrary units). The ration of signal intensity between 1022C3 and the control antibody ch9G4 was compared between multiple experiments and peptides with a signal three fold higher 1022C3 than ch9G4 were identified (FIG. 3).

Peptide_012 = target: T2, Peptide_012; assay: as above
T2 construct: immobilized on the microarray
T2 peptide: DNSCKVCCRDLSGRC
Experimental: as §1, §2, §3

Peptide_014 = target: T3, Peptide_014; assay: as above
T3 construct: immobilized on the microarray
T3 peptide: CCRDLSGRCVPYVDA
Experimental: as §1, §2, §3

Peptide_015 = target: T4, Peptide_015; assay: as above
T4 construct: immobilized on the microarray
T4 peptide: DLSGRCVPYVDAEQK
Experimental: as §1, §2, §3

Peptide_016 = target: T5, Peptide_016; assay: as above
T5 construct: immobilized on the microarray
T5 peptide: GRCVPYVDAEQKNLF
Experimental: as §1, §2, §3

Peptide_018 = target: T6, Peptide_018; assay: as above
T6 construct: immobilized on the microarray
T6 peptide: VDAEQKNLFLRKGKP
Experimental: as §1, §2, §3

Peptide_019 = target: T7, Peptide_019; assay: as above
T7 construct: immobilized on the microarray
T7 peptide: EQKNLFLRKGKPCTV
Experimental: as §1, §2, §3

Peptide_021 = target: T8, Peptide_021; assay: as above
T8 construct: immobilized on the microarray
T8 peptide: LRKGKPCTVGFCDMN
Experimental: as §1, §2, §3

Peptide_022 = target: T9, Peptide_022; assay: as above
T9 construct: immobilized on the microarray
T9 peptide: GKPCTVGFCDMNGKC
Experimental: as §1, §2, §3

Peptide_023 = target: T10, Peptide_023; assay: as above
T10 construct: immobilized on the microarray
T10 peptide: CTVGFCDMNGKCEKR
Experimental: as §1, §2, §3

Peptide_004 = target: T11, Peptide_004; assay: as above
T11 construct: immobilized on the microarray
T11 peptide: CKDGKCIPFCEREQQ
Experimental: as §1, §2, §3

Peptide_024 = target: T12, Peptide_024; assay: as above
T12 construct: immobilized on the microarray
T12 peptide: GFCDMNGKCEKRVQD
Experimental: as §1, §2, §3

Peptide_025 = target: T13, Peptide_025; assay: as above
T13 construct: immobilized on the microarray
T13 peptide: DMNGKCEKRVQDVIE
Experimental: as §1, §2, §3

Peptide_026 = target: T14, Peptide_026; assay: as above
T14 construct: immobilized on the microarray
T14 peptide: GKCEKRVQDVIERFW
Experimental: as §1, §2, §3

Peptide_027 = target: T15, Peptide_027; assay: as above
T15 construct: immobilized on the microarray
T15 peptide: EKRVQDVIERFWDFI
Experimental: as §1, §2, §3

Peptide_028 = target: T16, Peptide_028; assay: as above
T16 construct: immobilized on the microarray
T16 peptide: VQDVIERFWDFIDQL
Experimental: as §1, §2, §3

Peptide_029 = target: T17, Peptide_029; assay: as above
T17 construct: immobilized on the microarray
T17 peptide: VIERFWDFIDQLSIN
Experimental: as §1, §2, §3

Peptide_030 = target: T18, Peptide_030; assay: as above
T18 construct: immobilized on the microarray
T18 peptide: RFWDFIDQLSINTFG
Experimental: as §1, §2, §3

Peptide_031 = target: T19, Peptide_031; assay: as above
T19 construct: immobilized on the microarray
T19 peptide: DFIDQLSINTFGKFL
Experimental: as §1, §2, §3

Peptide_032 = target: T20, Peptide_032; assay: as above
T20 construct: immobilized on the microarray
T20 peptide: IDQLSINTFGKFLAD
Experimental: as §1, §2, §3

Peptide_005 = target: T21, Peptide_005; assay: as above
T21 construct: immobilized on the microarray
T21 peptide: GKCIPFCEREQQLES
Experimental: as §1, §2, §3

Peptide_006 = target: T22, Peptide_006; assay: as above
T22 construct: immobilized on the microarray
T22 peptide: IPFCEREQQLESCAC
Experimental: as §1, §2, §3

Peptide_007 = target: T23, Peptide_007; assay: as above
T23 construct: immobilized on the microarray
T23 peptide: CEREQQLESCACNET
Experimental: as §1, §2, §3

Peptide_008 = target: T24, Peptide_008; assay: as above
T24 construct: immobilized on the microarray
T24 peptide: EQQLESCACNETDNS
Experimental: as §1, §2, §3

Peptide_009 = target: T25, Peptide_009; assay: as above
T25 construct: immobilized on the microarray
T25 peptide: LESCACNETDNSCKV
Experimental: as §1, §2, §3

Peptide_010 = target: T26, Peptide_010; assay: as above
T26 construct: immobilized on the microarray
T26 peptide: CACNETDNSCKVCCR
Experimental: as §1, §2, §3

Peptide_011 = target: T27, Peptide_011; assay: as above
T27 construct: immobilized on the microarray
T27 peptide: NETDNSCKVCCRDLS
Experimental: as §1, §2, §3

Chain of ADAM17 at the plasma membrane of A431 cells (P78536 215-824 limits assumed): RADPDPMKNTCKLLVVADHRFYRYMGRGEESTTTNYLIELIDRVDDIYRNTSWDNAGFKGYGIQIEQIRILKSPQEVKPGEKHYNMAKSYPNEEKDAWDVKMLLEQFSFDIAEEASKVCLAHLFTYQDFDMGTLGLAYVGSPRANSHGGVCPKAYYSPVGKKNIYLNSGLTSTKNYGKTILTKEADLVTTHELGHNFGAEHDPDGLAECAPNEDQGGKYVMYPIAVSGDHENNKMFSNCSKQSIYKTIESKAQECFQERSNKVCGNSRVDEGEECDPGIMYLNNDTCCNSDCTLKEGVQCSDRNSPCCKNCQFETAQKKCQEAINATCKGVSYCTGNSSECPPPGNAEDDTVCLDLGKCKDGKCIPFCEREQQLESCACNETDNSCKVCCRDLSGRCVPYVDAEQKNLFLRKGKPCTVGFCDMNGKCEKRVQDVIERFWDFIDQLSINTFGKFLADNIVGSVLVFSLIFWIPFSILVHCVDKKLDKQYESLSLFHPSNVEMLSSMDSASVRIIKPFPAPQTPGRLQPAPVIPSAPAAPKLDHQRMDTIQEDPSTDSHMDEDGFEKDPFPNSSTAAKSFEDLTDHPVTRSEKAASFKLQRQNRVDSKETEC

B1: hz1022C3 (antibody, V domains shown)
VH: QVQLQESGPGLVKPSETLSLTCTVSGFSLDTSGMGVSWIRQPAGKGLEWIGHIYWDDDKRYNPSLKSRVTMSKDTSSNQVSLKLSSVTAADTAVYYCARRSHFGNYYYAMDYWGQGTTVTVSS
VL: DIQMTQSPSSLSASVGDRVTITCRASQDISSYLNWYQQKPGKAPKLLIFYTSRLQSGVPSRFSGSGSGTDFTLTISSLQPEDFATYYCQQGKTLPLTFGGGTKVEIK
notes: also called mAb hz1022C3; anti-ADAM17 mAb (hz1022C3)
Q: For B1, which “IC50 of inhibition of cellular shedding of (mutated pro-)TNFα-Nluc” value [1] is on record?
A: Its value is 0.16 nM.

Q: And the “IC50 of inhibition of cellular shedding of AREG-Nluc from A431 cells” value [1]?
A: Its value is 0.16 nM.

Q: What about the “IC50 of inhibition of cellular shedding of HB-EGF-Nluc from A431 cells” value [1] of the same binder?
A: Its value is 0.19 nM.

Q: What about the “IC50 of inhibition of cellular shedding of TGFα-Nluc from A431 cells” value [1] of the same binder?
A: Its value is 0.12 nM.

Q: What about the “IC50 of inhibition of cellular shedding, mean of the four substrates” value [1] of the same binder?
A: Its value is 0.16 nM.

Q: Does B1 bind (Peptide_001)?
A: Result: no binding (tested: 100 µg/ml)

Q: Does B1 bind (Peptide_012)?
A: Result: no binding (tested: 100 µg/ml)

Q: Does B1 bind (Peptide_014)?
A: Result: no binding (tested: 100 µg/ml)

Q: Does B1 bind (Peptide_015)?
A: Result: no binding (tested: 100 µg/ml)

Q: Does B1 bind (Peptide_016)?
A: Result: no binding (tested: 100 µg/ml)

Q: Does B1 bind (Peptide_018)?
A: Result: no binding (tested: 100 µg/ml)

Q: Does B1 bind (Peptide_019)?
A: Result: no binding (tested: 100 µg/ml)

Q: Does B1 bind (Peptide_021)?
A: Result: no binding (tested: 100 µg/ml)

Q: Does B1 bind (Peptide_022)?
A: Result: no binding (tested: 100 µg/ml)

Q: Does B1 bind (Peptide_023)?
A: Result: no binding (tested: 100 µg/ml)

Q: Does B1 bind (Peptide_004)?
A: Result: no binding (tested: 100 µg/ml)

Q: Does B1 bind (Peptide_024)?
A: Result: no binding (tested: 100 µg/ml)

Q: Does B1 bind (Peptide_025)?
A: Result: no binding (tested: 100 µg/ml)

Q: Does B1 bind (Peptide_026)?
A: Result: no binding (tested: 100 µg/ml)

Q: Does B1 bind (Peptide_027)?
A: Result: no binding (tested: 100 µg/ml)

Q: Does B1 bind (Peptide_028)?
A: Result: no binding (tested: 100 µg/ml)

Q: Does B1 bind (Peptide_029)?
A: Result: no binding (tested: 100 µg/ml)

Q: Does B1 bind (Peptide_030)?
A: Result: no binding (tested: 100 µg/ml)

Q: Does B1 bind (Peptide_031)?
A: Result: no binding (tested: 100 µg/ml)

Q: Does B1 bind (Peptide_032)?
A: Result: no binding (tested: 100 µg/ml)

Q: Does B1 bind (Peptide_005)?
A: Result: no binding (tested: 100 µg/ml)

Q: Does B1 bind (Peptide_006)?
A: Result: no binding (tested: 100 µg/ml)

Q: Does B1 bind (Peptide_007)?
A: Result: no binding (tested: 100 µg/ml)

Q: Does B1 bind (Peptide_008)?
A: Result: no binding (tested: 100 µg/ml)

Q: Does B1 bind (Peptide_009)?
A: Result: no binding (tested: 100 µg/ml)

Q: Does B1 bind (Peptide_010)?
A: Result: no binding (tested: 100 µg/ml)

Q: Does B1 bind (Peptide_011)?
A: Result: no binding (tested: 100 µg/ml)
